Experimental data published in article PMC7305210, “Mitochondria-adaptor TRAK1 promotes kinesin-1 driven transport in crowded environments” (Nature Communications, 2020).

B1: mCherry-labelled full-length TRAK1 (natural protein, UniProt Q9UPV9-1 1-953, looked up)
chain: MALVFQFGQPVRAQPLPGLCHGKLIRTNACDVCNSTDLPEVEIISLLEEQLPHYKLRADTIYGYDHDDWLHTPLISPDANIDLTTEQIEETLKYFLLCAERVGQMTKTYNDIDAVTRLLEEKERDLELAARIGQSLLKKNKTLTERNELLEEQVEHIREEVSQLRHELSMKDELLQFYTSAAEESEPESVCSTPLKRNESSSSVQNYFHLDSLQKKLKDLEEENVVLRSEASQLKTETITYEEKEQQLVNDCVKELRDANVQIASISEELAKKTEDAARQQEEITHLLSQIVDLQKKAKACAVENEELVQHLGAAKDAQRQLTAELRELEDKYAECMEMLHEAQEELKNLRNKTMPNTTSRRYHSLGLFPMDSLAAEIEGTMRKELQLEEAESPDITHQKRVFETVRNINQVVKQRSLTPSPMNIPGSNQSSAMNSLLSSCVSTPRSSFYGSDIGNVVLDNKTNSIILETEAADLGNDERSKKPGTPGTPGSHDLETALRRLSLRRENYLSERRFFEEEQERKLQELAEKGELRSGSLTPTESIMSLGTHSRFSEFTGFSGMSFSSRSYLPEKLQIVKPLEGSATLHHWQQLAQPHLGGILDPRPGVVTKGFRTLDVDLDEVYCLNDFEEDDTGDHISLPRLATSTPVQHPETSAHHPGKCMSQTNSTFTFTTCRILHPSDELTRVTPSLNSAPTPACGSTSHLKSTPVATPCTPRRLSLAESFTNTRESTTTMSTSLGLVWLLKERGISAAVYDPQSWDRAGRGSLLHSYTPKMAVIPSTPPNSPMQTPTSSPPSFEFKCTSPPYDNFLASKPASSILREVREKNVRSSESQTDVSVSNLNLVDKVRRFGVAKVVNSGRAHVPTLTEEQGPLLCGPPGPAPALVPRGLVPEGLPLRCPTVTSAIGGLQLNSGIRRNRSFPTMVGSSMQMKAPVTLTSGILMGAKLSKQTSLR
notes: TRAK1 (trafficking kinesin protein 1), cDNA KIAA1042 from the Kazusa DNA Research Institute; 953 residues by the printed region 636-953; also called mCherry-TRAK1; trafficking kinesin protein 1; source: HEK293T cells, transfected, purified (StrepTactinXT, eluted by TEV cleavage of the N-terminal tag, Superose 6 SEC); not shown: mCherry, N-terminal, kept; TwinStrep-FLAG-Halo, N-terminal, cleaved
B2: GFP-labelled KIF5B∆ (KIF5B without the inhibitory domain, amino acids 906-963) (domain or fragment, human, UniProt P33176 1-905, looked up)
chain: MADLAECNIKVMCRFRPLNESEVNRGDKYIAKFQGEDTVVIASKPYAFDRVFQSSTSQEQVYNDCAKKIVKDVLEGYNGTIFAYGQTSSGKTHTMEGKLHDPEGMGIIPRIVQDIFNYIYSMDENLEFHIKVSYFEIYLDKIRDLLDVSKTNLSVHEDKNRVPYVKGCTERFVCSPDEVMDTIDEGKSNRHVAVTNMNEHSSRSHSIFLINVKQENTQTEQKLSGKLYLVDLAGSEKVSKTGAEGAVLDEAKNINKSLSALGNVISALAEGSTYVPYRDSKMTRILQDSLGGNCRTTIVICCSPSSYNESETKSTLLFGQRAKTIKNTVCVNVELTAEQWKKKYEKEKEKNKILRNTIQWLENELNRWRNGETVPIDEQFDKEKANLEAFTVDKDITLTNDKPATAIGVIGNFTDAERRKCEEEIAKLYKQLDDKDEEINQQSQLVEKLKTQMLDQEELLASTRRDQDNMQAELNRLQAENDASKEEVKEVLQALEELAVNYDQKSQEVEDKTKEYELLSDELNQKSATLASIDAELQKLKEMTNHQKKRAAEMMASLLKDLAEIGIAVGNNDVKQPEGTGMIDEEFTVARLYISKMKSEVKTMVKRCKQLESTQTESNKKMEENEKELAACQLRISQHEAKIKSLTEYLQNVEQKKRQLEESVDALSEELVQLRAQEKVHEMEKEHLNKVQTANEVKQAVEQQIQSHRETHQKQISSLRDEVEAKAKLITDLQDQNQKMMLEQERLRVEHEKLKATDQEKSRKLHELTVMQDRREQARQDLKGLEETVAKELQTLHNLRKLFVQDLATRVKKSAEIDSDDTGGSAAQKQKISFLENNLEQLTKVHKQLVRDNADLRCELPKLEKRLRATAERVKALESALKEAKENASRDRKRYQQEVDRIKEA
notes: Constitutively active construct; also called KIF5B∆-GFP; source: SF9 insect cells (FlexiBAC baculovirus), purified (Ni-NTA, 6xHis cleaved by 3C PreScission protease, second Ni-NTA); not shown: GFP, C-terminal, kept; 6xHis, C-terminal, cleaved

Legend:
[1] = target: the molecule itself; experiment: single-molecule fluorescence intensity distributions (TIRF) with labelling efficiencies from SEC absorption; intensity distributions of KIF5B∆-mCherry compared with mCherry-TRAK1 in the motility experiments; labelling efficiencies about 22% and about 88%
[2] = target: B2; experiment: as above; conditions: both partners purified
[3] = target: B1; experiment: single-molecule TIRF microscopy, two-colour co-movement on immobilised microtubules; KIF5B construct and 175 nM TRAK1 construct pre-incubated 10 min on ice, flushed onto bare immobilised microtubules in motility buffer with 1 mM Mg-ATP; room temperature; for the complexes traces of the mCherry-TRAK1 channel analysed; conditions: both partners purified
[4] = target: B1; experiment: TIRF microscopy, reconstituted transport of mitochondria on immobilised microtubules; 2 nM unlabeled KIF5B∆, 100 nM mCherry-TRAK1 and 10 µg isolated mitochondria-GFP (4T1 cells) pre-incubated on ice, flushed onto immobilised microtubules; room temperature; conditions: both partners purified

| Binder | stoichiometry N [1] | stoichiometry N [2] | binding result [3] | binding result [4] |
| --- | --- | --- | --- | --- |
| B1 | 2 | 1 TRAK1 dimer per KIF5B dimer | – | – |
| B2 | 2 | – | binds | – |
| unlabelled KIF5B∆ (domain or fragment, human, UniProt P33176 1-905, looked up, KIF5B, kinesin-1 heavy chain, human, amino acids 1-905; The methods describe only vectors with a C-terminal fluorescent tag; also called recombinant KIF5B∆; source: SF9 insect cells (all KIF5B constructs), purified) MADLAECNIKVMCRFRPLNESEVNRGDKYIAKFQGEDTVVIASKPYAFDRVFQSSTSQEQVYNDCAKKIVKDVLEGYNGTIFAYGQTSSGKTHTMEGKLHDPEGMGIIPRIVQDIFNYIYSMDENLEFHIKVSYFEIYLDKIRDLLDVSKTNLSVHEDKNRVPYVKGCTERFVCSPDEVMDTIDEGKSNRHVAVTNMNEHSSRSHSIFLINVKQENTQTEQKLSGKLYLVDLAGSEKVSKTGAEGAVLDEAKNINKSLSALGNVISALAEGSTYVPYRDSKMTRILQDSLGGNCRTTIVICCSPSSYNESETKSTLLFGQRAKTIKNTVCVNVELTAEQWKKKYEKEKEKNKILRNTIQWLENELNRWRNGETVPIDEQFDKEKANLEAFTVDKDITLTNDKPATAIGVIGNFTDAERRKCEEEIAKLYKQLDDKDEEINQQSQLVEKLKTQMLDQEELLASTRRDQDNMQAELNRLQAENDASKEEVKEVLQALEELAVNYDQKSQEVEDKTKEYELLSDELNQKSATLASIDAELQKLKEMTNHQKKRAAEMMASLLKDLAEIGIAVGNNDVKQPEGTGMIDEEFTVARLYISKMKSEVKTMVKRCKQLESTQTESNKKMEENEKELAACQLRISQHEAKIKSLTEYLQNVEQKKRQLEESVDALSEELVQLRAQEKVHEMEKEHLNKVQTANEVKQAVEQQIQSHRETHQKQISSLRDEVEAKAKLITDLQDQNQKMMLEQERLRVEHEKLKATDQEKSRKLHELTVMQDRREQARQDLKGLEETVAKELQTLHNLRKLFVQDLATRVKKSAEIDSDDTGGSAAQKQKISFLENNLEQLTKVHKQLVRDNADLRCELPKLEKRLRATAERVKALESALKEAKENASRDRKRYQQEVDRIKEA | – | – | – | binds |
